T1: RRM3Mei2 (Schizosaccharomyces pombe, UniProt P08965 579-750)
T1 sequence: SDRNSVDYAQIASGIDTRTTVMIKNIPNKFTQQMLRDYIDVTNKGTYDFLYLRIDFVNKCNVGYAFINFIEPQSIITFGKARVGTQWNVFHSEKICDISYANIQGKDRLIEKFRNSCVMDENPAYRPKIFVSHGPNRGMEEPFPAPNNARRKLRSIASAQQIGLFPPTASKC


Each binder was assayed against T1, RRM3Mei2 (assay: ITC; ITC: 20 mM Tris-HCl pH 7.5, 200 mM NaCl, 5 mM 2-mercaptoethanol, 20 °C; N fixed to 1). Conditions: protein: recombinant; tags: GST-tag removed by 3C protease.

Row | Binder | Kd
1 | GCUUUUUGUUCG (ssRNA) [GCUUUUUGUUCG 12-mer] | 555 ± 166 nM
2 | UUUUUUUUUUUUUUU (ssRNA) [poly-U15] | 1430 ± 194 nM
3 | UUUUUUGGUUUUUUU (ssRNA) [U6GGU7] | 435 ± 112 nM
4 | UUUUUUUGUUUUUUU (ssRNA) [U7GU7] | 145 ± 26 nM
